Test results taken from paper PMC2228010, “Production and characterization of a recombinant anti-MUC1 scFv reactive with human carcinomas” (British Journal of Cancer, 1997).
Numbering of substitutions follows the chain as printed.

Tests used:
[1] = molecular target: T1, MUC1 antigen on human breast and bladder carcinoma tissue sections (Homo sapiens, UniProt P15941); assay: immunostaining of cells or tissue; 3 um paraffin sections of breast and transitional cell bladder tumours, no antigen retrieval; primary antibody 1 h; scFv detected with mouse anti-E-Tag (1:50); StreptABC/HRP, diaminobenzidine; details: one partner purified
T1 construct: MUC1 mucin in tumour tissue; also called breast tumour tissue sections; sections from bladder carcinomas; source: endogenous, archival paraffin sections of breast and transitional cell bladder tumours

p(1-25) peptide = molecular target: T2, p(1-25) peptide (Homo sapiens MUC1 repeat, synthetic); assay: other fluorescence titration; fluorescence quenching in PBS, excitation 290 nm, emission 345 nm; C595 0.12 uM or C595 scFv 0.27 uM, 2.5 ul aliquots of 60 uM peptide added until maximum quenching; Scatchard analysis; details: both partners purified
T2 construct: 25 residues of the MUC1 tandem repeat region; source: synthetic peptide

[2] = molecular target: T3, immunodominant region related peptide APDTRPAPG (Homo sapiens MUC1 repeat, synthetic); assay: as above; details: both partners purified
T3 construct: stretch of the MUC1 20 amino acid repeat; Free in solution for fluorescence quenching; source: synthetic peptide
T3 chain: APDTRPAPG

60 mer MUC1 peptide = molecular target: T4, 60 mer MUC1 peptide (Homo sapiens MUC1 repeat, synthetic, UniProt P15941); assay: as above; details: both partners purified
T4 construct: source: synthetic peptide, provided by Dr J Darrell Fontenot

105 mer MUC1 peptide = molecular target: T5, 105 mer MUC1 peptide (Homo sapiens MUC1 repeat, synthetic, UniProt P15941); assay: as above; details: both partners purified
T5 construct: source: synthetic peptide, provided by Dr J Darrell Fontenot

[3] = molecular target: T3, immunodominant region related peptide …; assay: peptide epitope affinity chromatography; filtered bacterial supernatant applied to Sepharose 4B conjugated to APDTRPAPG; washed with PBS, 0.02% sodium azide; bound scFv eluted with 3 M sodium thiocyanate; eluate analysed by SDS-PAGE and anti-E-Tag Western blot; details: one partner purified

Measured: binding result

T1 sequence (P15941 24-1255): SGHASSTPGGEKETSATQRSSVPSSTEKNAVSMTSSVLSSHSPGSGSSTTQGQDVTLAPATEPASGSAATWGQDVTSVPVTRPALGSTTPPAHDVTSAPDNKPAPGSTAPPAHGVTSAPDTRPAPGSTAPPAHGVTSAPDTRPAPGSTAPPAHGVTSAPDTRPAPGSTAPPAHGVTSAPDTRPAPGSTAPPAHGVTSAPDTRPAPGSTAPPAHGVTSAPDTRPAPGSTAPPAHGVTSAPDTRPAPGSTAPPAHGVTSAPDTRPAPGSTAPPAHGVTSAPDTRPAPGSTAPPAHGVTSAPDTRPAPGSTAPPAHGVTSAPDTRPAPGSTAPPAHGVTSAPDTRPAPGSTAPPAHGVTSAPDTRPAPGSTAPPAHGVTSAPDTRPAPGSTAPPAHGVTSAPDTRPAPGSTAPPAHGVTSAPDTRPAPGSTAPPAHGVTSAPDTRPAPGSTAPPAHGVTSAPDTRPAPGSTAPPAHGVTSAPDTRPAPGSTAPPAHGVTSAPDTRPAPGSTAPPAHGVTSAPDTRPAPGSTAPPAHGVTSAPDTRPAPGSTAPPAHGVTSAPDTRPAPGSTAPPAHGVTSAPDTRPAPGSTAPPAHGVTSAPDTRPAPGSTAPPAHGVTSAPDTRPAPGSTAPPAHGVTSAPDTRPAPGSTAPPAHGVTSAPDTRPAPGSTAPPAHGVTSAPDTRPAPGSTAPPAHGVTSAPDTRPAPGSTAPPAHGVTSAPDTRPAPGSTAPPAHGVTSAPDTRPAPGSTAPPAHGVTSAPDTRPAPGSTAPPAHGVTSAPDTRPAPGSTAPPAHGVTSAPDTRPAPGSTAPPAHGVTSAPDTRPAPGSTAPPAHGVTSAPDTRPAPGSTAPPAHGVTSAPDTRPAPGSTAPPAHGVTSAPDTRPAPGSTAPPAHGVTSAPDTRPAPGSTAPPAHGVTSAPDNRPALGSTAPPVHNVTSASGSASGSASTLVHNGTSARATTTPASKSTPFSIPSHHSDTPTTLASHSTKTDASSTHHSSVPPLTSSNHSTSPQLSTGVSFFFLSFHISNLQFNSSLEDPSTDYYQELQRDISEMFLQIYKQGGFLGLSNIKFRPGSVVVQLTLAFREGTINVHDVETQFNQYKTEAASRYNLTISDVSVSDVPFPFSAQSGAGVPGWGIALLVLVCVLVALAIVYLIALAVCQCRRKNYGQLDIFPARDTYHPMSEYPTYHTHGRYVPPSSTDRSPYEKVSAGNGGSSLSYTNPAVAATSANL
T2 sequence (peptide, as listed by the source): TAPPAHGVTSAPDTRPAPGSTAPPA

B1: Monoclonal antibody C595 (antibody, V domains shown)
VH: EVQLVESGGGLVQPGGSLKLSCAASGFTFSSYGMSWVRQTPDKRLELVATINSNGGSTYYPDSVKGRFTISRDNAKNTLYLQMSSLKSEDTAMYYCARDRDGYDEGFDYWG
VL: QIVLTQSPAIMSASPGEKVTMTCSASSSVSYMHWYQQKSGTSPKRWIYDTSKLASGVPARFSGSGSGTSYSLTISSMEAEDAATYYCQQWSSNPPTFGGGTKLEIK
notes: mouse IgG3 heavy chain constant region; mouse kappa light chain constant region; IgG3, kappa light chain; it was used at stated concentrations in PBS; also called NCRC-48; source: hybridoma (spleen cells of a BALB/c mouse immunized against purified MUC1 urinary mucin)
not listed: [3]
binds: all other assays above

B2: C595 scFv clone 31 (scFv, V domains shown)
VH: QVQLQESGGGLVQPGGSLKLSCAASGFTFSSYGMSWVRQTPDKRLELVATINSNGGSTYYPDSVKGRFTISRDNAKNTLYLQMSSLKSEDTAMYYCARDRDGYDEGFDYWGPGTTVTVSS
VL: B1 VL with Q1D, V3E, A9S, G100R, I105L
notes: it is not written as a part; About 30 kDa on SDS-PAGE; also called recombinant C595 scFv; the scFv; source: E. coli HB2151 (pCANTAB 5E, IPTG), bacterial culture supernatant; not shown: E-Tag, C-terminal, kept
not listed: [2]
binds: all other assays above
